Measurements from paper PMC4772114, “Structural basis for the regulation of enzymatic activity of Regnase-1 by domain-domain interactions” (Scientific Reports, 2016).
One block for each binder: values may come before it.

What was measured:
[1] = molecular target: the molecule itself; test: not stated; Kd of PIN-PIN told in the discussion only; how it was estimated is not told
[2] = molecular target: the molecule itself; test: SEC; gel filtration of the PIN domain and its mutants; elution volume compared with standard marker proteins; concentration dependent, 20-200 uM range
[3] = molecular target: the molecule itself; test: crystal structure; PIN-ZF (134-339), sitting drop vapor diffusion at 20 C; form I (P3_121, selenomethionine-labeled) and form II (P3_221, native)
[4] = molecular target: T1, Regnase-1 PIN domain, catalytically inactive monomeric mutant (DDNN and D278R) (Mus musculus, UniProt Q5D1E7 134-295, D226N | D244N | D278R); test: NMR titration; 1H-15N HSQC of 15N-labeled NTD at 100 uM with unlabeled PIN (DDNN, D278R) added (3 or 6 molar equivalents); 298 K; apparent Kd from the titration curve of L58; settings: both partners purified
T1 construct: Regnase-1 (Zc3h12a), Mus musculus, PIN domain; the discussion gives PIN as residues 134-295; Limits as for m1; Uniformly 15N-labelled or unlabelled in the NMR experiments; not shown: GST, N-terminal, cleaved
T1 sequence (looked up): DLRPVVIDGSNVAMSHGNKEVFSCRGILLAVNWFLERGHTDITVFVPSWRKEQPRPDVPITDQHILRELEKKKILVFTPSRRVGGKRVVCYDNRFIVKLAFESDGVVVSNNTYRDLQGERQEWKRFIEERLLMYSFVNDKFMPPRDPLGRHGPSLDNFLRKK

[5] = molecular target: T2, Regnase-1 ZF domain (Mus musculus, UniProt Q5D1E7 299-339); test: NMR titration (1H-15N HSQC, Y314); Zn2+-bound ZF; 100 uM ZF; apparent Kd; EMSA: 20 mM HEPES-NaOH pH 6.8, 150 mM NaCl, 1 mM DTT, 10% glycerol, 0.1% NP-40, 4 C, 30 min; NMR buffer not in material; settings: protein: recombinant; tags: GST removed (HRV-3C), 15N-labeled
T2 chain: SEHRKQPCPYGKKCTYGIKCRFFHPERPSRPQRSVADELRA

B1: Regnase-1 PIN domain, wild type (domain or fragment, Mus musculus, UniProt Q5D1E7 134-295, looked up)
chain: DLRPVVIDGSNVAMSHGNKEVFSCRGILLAVNWFLERGHTDITVFVPSWRKEQPRPDVPITDQHILRELEKKKILVFTPSRRVGGKRVVCYDDRFIVKLAFESDGVVVSNDTYRDLQGERQEWKRFIEERLLMYSFVNDKFMPPDDPLGRHGPSLDNFLRKK
notes: Regnase-1 (Zc3h12a, MCPIP1), Mus musculus, PIN domain; the discussion gives PIN as residues 134-295; The limits 134-295 are told for the PIN domain in the discussion, not expressly for the construct; 15N-labelled for NMR; also called PilT N-terminus like domain; not shown: GST, N-terminal, cleaved
- Kd [1]: ~100 µM

B2: Regnase-1 PIN domain R215E (domain or fragment, Mus musculus, UniProt Q5D1E7 134-295, looked up)
chain: DLRPVVIDGSNVAMSHGNKEVFSCRGILLAVNWFLERGHTDITVFVPSWRKEQPRPDVPITDQHILRELEKKKILVFTPSREVGGKRVVCYDDRFIVKLAFESDGVVVSNDTYRDLQGERQEWKRFIEERLLMYSFVNDKFMPPDDPLGRHGPSLDNFLRKK
notes: Regnase-1 (Zc3h12a), Mus musculus, PIN domain; the discussion gives PIN as residues 134-295; Limits as for m1; not shown: GST, N-terminal, cleaved
- binding result [2]: binds

B3: Regnase-1 PIN-ZF (residues 134-339) (domain or fragment, Mus musculus, UniProt Q5D1E7 134-339, looked up)
chain: DLRPVVIDGSNVAMSHGNKEVFSCRGILLAVNWFLERGHTDITVFVPSWRKEQPRPDVPITDQHILRELEKKKILVFTPSRRVGGKRVVCYDDRFIVKLAFESDGVVVSNDTYRDLQGERQEWKRFIEERLLMYSFVNDKFMPPDDPLGRHGPSLDNFLRKKPLPSEHRKQPCPYGKKCTYGIKCRFFHPERPSRPQRSVADELRA
modifications: selenomethionine-labeled (form I crystals); native (form II crystals)
notes: Regnase-1 (Zc3h12a), Mus musculus, PIN and ZF domains, residues 134-339; Electron density was observed only for the PIN domain; also called fragment containing both the PIN and ZF domains; not shown: GST, N-terminal, cleaved
- binding result [3]: binds

- Kd [4]: 110 ± 5.8 µM
B4: Regnase-1 N-terminal domain (NTD) (domain or fragment, Mus musculus)
chain: TSELQMKVDFFRKLGYSSSEIHSVLQKLGVQADTNTVLGELVKHG
notes: Regnase-1 (Zc3h12a), Mus musculus, N-terminal domain; residues 90-133 are called the connection between the NTD and PIN; Uniformly 15N-labelled or unlabelled in the NMR experiments; not shown: GST, N-terminal, cleaved

B5: IL-6 mRNA 3'UTR (82-106) (ssRNA)
RNA: UGUUGUUCUCUACGAAGAACUGACA
- Kd [5]: 10 ± 1.1 µM
